Common to all, as to assay: flow cytometry, CHO-K1; sub-column 2 of 2
The target in one experiment is T1, R93A.
T1 construct: also called hCD27 R93A
T1 receptor: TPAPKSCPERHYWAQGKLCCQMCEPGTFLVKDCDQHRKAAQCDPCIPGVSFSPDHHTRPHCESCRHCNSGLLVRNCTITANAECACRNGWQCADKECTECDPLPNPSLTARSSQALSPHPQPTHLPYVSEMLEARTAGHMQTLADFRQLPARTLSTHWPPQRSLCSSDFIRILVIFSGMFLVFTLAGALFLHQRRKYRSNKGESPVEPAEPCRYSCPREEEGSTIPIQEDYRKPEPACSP

Another experiment addresses T2, Q91A.
T2 construct: also called hCD27 Q91A
T2 receptor: T1 receptor with Q91A, A93R

A further experiment has as its target T3, R37A.
T3 construct: also called hCD27 R37A
T3 receptor: T1 receptor with R37A, A93R

For another experiment, the target named is T4, I46A.
T4 construct: also called hCD27 I46A
T4 receptor: T1 receptor with I46A, A93R

Another experiment addresses T5, H60A.
T5 construct: also called hCD27 H60A
T5 receptor: T1 receptor with H60A, A93R

The target of another experiment is T6, E9A.
T6 construct: also called hCD27 E9A
T6 receptor: T1 receptor with E9A, A93R

The next experiment concerns the target T7, N88A.
T7 construct: also called hCD27 N88A
T7 receptor: T1 receptor with N88A, A93R

For a further experiment, the target named is T8, V30A.
T8 construct: also called hCD27 V30A
T8 receptor: T1 receptor with V30A, A93R

A further experiment has as its target T9, Q15A.
T9 construct: also called hCD27 Q15A
T9 receptor: T1 receptor with Q15A, A93R

A further experiment has as its target T10, F28A.
T10 construct: also called hCD27 F28A
T10 receptor: T1 receptor with F28A, A93R

Numbering of substitutions follows the chain as printed.

Turning to 1A4 (mouse IgG1) (antibody), the % of WT hCD27 binding (geo mean FITC) with R93A came out at 91.1%; with Q91A, 120%; with R37A, 87%; with I46A, 82.7%; with H60A it was 120%; with E9A, 122%. In addition, the % of WT hCD27 binding (geo mean FITC) with N88A came to 116%; with V30A, 102%; with Q15A, 7.6%; with F28A, 60%.

Consider 9F4 (mouse IgG2a) (antibody), for which the % of WT hCD27 binding (geo mean FITC) in the experiment with R93A is 91.1%; in the experiment with Q91A, 111%; with R37A, 6.2%; with I46A it was 82.7%; with H60A it was 126%; in the experiment with E9A it was 109%. The % of WT hCD27 binding (geo mean FITC) in the experiment with N88A worked out at 104%; in the experiment with V30A, 95.6%; in the experiment with Q15A, 118%; in the experiment with F28A it was 58.2%.

B1: Antibody hCD27.131A (mouse parental 131A) (antibody, V domains shown)
VH: QIQLVQSGPELKKPGETVKISCKASGYTFTNYGMNWVKQAPGKGLKWMGWINTNTGEPTYAEEFKGRFAFSLETSATTAYLQINNLKNEDTATYFCAREGDAMDYWGQGTSVTVSS
VL: QIVLTQSPAIMSASPGEKVTMTCSASSSVSYMHWYQQKSGTSPKRWIYDTSKLASGVPARFSGSGSGTSYSLTISSMEAEDAATYYCQQWNSYPFTFGSGTKLEIK
notes: mouse IgG1; also called mouse hCD27.131A
Regarding B1, the “% of WT hCD27 binding (geo mean FITC)” value came to 90% in the experiment with R93A; 136% in the experiment with Q91A; 9.6% in the experiment with R37A; 75% in the experiment with I46A; 129% in the experiment with H60A; 132% with E9A. The “% of WT hCD27 binding (geo mean FITC)” value came to 124% with N88A, 94% in the experiment with V30A, 136% with Q15A and 57.1% with F28A.

For the origin of these results see patent publication US20190300618A1 (Merck Sharp & Dohme, published 2019).
